Assay: soluble on expression in E. coli; label from the status in PepcDB or PDB records

| Sequence | soluble on expression in E. coli |
| --- | --- |
| MALREMIIDESDDIESYSDQSLCLDKAKELLALIKLPTGLLPLKDMTEVGYNKTKGFVWMRMRSKIEHTFREIGRRVLYDTEITAFVEDRRMRRLTGVKSKELMIWVPVNDIFIKRKILRRSPLLIPPACHEHLKFQHFNVRVDKLKEKRSNQTSLM | not soluble |
| MALSGIYKLDDGKPYLNNCFPARNLLRVPEEGQGHWLVVQKGNLKKKPKGLVGAQAERRESLKATSFEFKGKKESRRENQVDLPGHILDQAFLLKHHCVRKPSDLCTINAKENDFKHFHSVIYINASENLLPLEAFHTFPALKELDLAFNGIKTIYVKYGDFKLLEFLDLSFNSLTVEAICDLGILPHLRVLLLTGNGLTSLPPNLAVAEQEASVTSLTSKRYILRFPALETLMLDDNRLSNPSCFASLAGLRRLKKLSLDENRIIRIPYLQQVQLYDESVDWNGGRGSPHKEPQFMLQSKPRMLEDSDEQLDYTVLPMKKDVDRTGVPPLLKSFLQERLGIHLIRRKIVKPKHHVLMSRKESWKVKSEIPKVPKQPLVLHHPRMRTTKSPSKDMLEPEAELAEDLPTTKSTSVESEMPTENLEGHSPSCRTFVPLPPICSNSTVHSEETLSHLSDTTVRLSPERPSDEDSKSTESIFLTQVSELPSSVIHKDDLELKEKDQKKPPTAPREVKGTRRKLPTAFLPSKYHGYEELLTAKPDPAFIEPKGIQKNAQALQQMLKHPLLCHSSKPKLDTLQKPYVHKEKRVLSCTSGQNGGW | not soluble |
| MALSKTIATVTRRICERSAPTREIYLDRIAKAQANHPKRSFLGCANQAHGFAACGSIDKKRLKRNIVGNIGIITAYNDILSAHQPFESFPHLIKETARMFGGVAQVAGGVPAMCDGVTQGNTGMELSLFSRDVIAMATAIGLSHDMFDAALYLGVCDKIVPGLVIGALTFGHLPGIFVPAGPMTSGQGNDEKAKIRQLYAENKIDRQTLLESEARSYHGPGTCTFYGTANSNQVILEMMGLHMPGSSFINANTPLRDALTKEATKRVLEMIALGDSYSPIGLIVDERSFVNAVVGLNATGGSTNHAIHLIAMAAAAGILLTWHDIAEISSVVPLLARIYPNGLADINHFHAAGGMGFVIRELIEAGLVHEDVCTVFGKDLNAYAIEAKLCNDDNVVREPALNESANHKVLTGWRKPFQSDGGIRILLGDLGTAIMKVSSVKSEYWRIEAPVLVFNDQEELQEAFKAGVLNDKDFIAVIRYQGPKANGMPELHKLTTILGVLQDRGQKVALVTDGRMSGASGKIPAAIHVTPEALDDGPIARLQNGDVVCLDAHVGKLAILEDKVEFNARKITLPDLSKNEYGVGRELFRIFRHSVNRADQGASVLIA | not soluble |
| MALVRFSPLYEFDRELGTLQRQMSRFLQPWPWTEAELKELSFAPAVEVKETDAAIELRVELPGIDPKDLDLQVTAEAVVLKGERRSEDRSEAEGVLRTEFRYGAFERVIPLPAQVKNTEAQADYQNGILVLTLPKRDEELHKVVKVDLGHLAAAPVAAEACERLEHHHHHH | soluble |
| MAMKIPKSGYNRFMKEGAQHFKGTDEAVQRNIEACTELASQIRSAYGPNGMNKMVINHIEKLFVTNDAATILKELEIQHPAARIIIMATEMQEKQIGDNTNTVVILAAALLEHAANLIHMGMTPQEVAAGYEQAAEKALEILPTLVVKEATDMKNIEEVRQYIRSAITSKQYDNEDIIADLVAKACVTTCPANSFNFNVDNIRICKIIGSGVHTSTVMNGMVFKRGAEGEIREARDARIAVYTCPFDLTQTETKGTVLIENADELRNFSKGEEAEVEEQVKAIADNARSSILAKFWLMNFSKGEEAEVEEQQVKAIADNGVKVVVAAGKFGDMYLHFLNKYKIMAVRLTSKFDLRRLCRTVGAQPQARICAPAVNLLGHCDSVAVQEIGDENVVVFDKKSETGKVATIIIRGSSQSRIDDVERAVDDAVNTYKALTKDGKLLAGAGAVEIELAKEIESFGAKAPGLEQYAIKKFAHALETLPKAIAENAGMPTTETLTKLYAEHVAGKKNAGIDIWKRETMDAVVNNIFDLYAGKRLAIKLATDAASTILKVDQIIMSKQATGGPKPRGPKAQDEDDDGMA | not soluble |
| MAMKQWIAALLLMLIPGVQAAKPQKVTLMVDDVPVAQVLQALAEQEKLNLVVSPDVSGTVSLHLTDVPWKQALQTVVKSAGLITRQEGNILSVHSIAWQNDNIARQEAEQARAQANLPLENRSITLQYADAGELAKAGEKLLSAKGSMTVDKRTNRLLLRDNKTALSALEQWVAQMDLPVGQVELSAHIVTINEKSLRELGVKWTLADAQHAGGVGQVTTLGSDLSVATATTHVGFNIGRINGRLLDLELSALEQKQQLDIIASPRLLASHLQPASIKQESEIPYQVSSGESGATSVEFKEAVLGMEVTPTVLQKGRIRLKLHISQNVPGQVLQQADGEVLAIDKQEIETQVEVKSGETLALGGIFTRKNKSGQDSVPLLGDIPWFGQLFRHDGKEDERRELVVFITPRLVSSELEHHHHHH | soluble |
| MANAIRLPPEAYPMSIAAQKNDDDRQARALAALAEKPDGIVEAIAAKAEVAPAEILAILPQGAAVSAPADRFDAIWNEMRGWGEILMIVQTGDIVLEVPGHLPEGTESHGWFNIHGDSPIGGHIKKDNCAAITFVDRGFHGRRSCSVWFMNAAGGAMFKIFVRRDENKELLAGQLAKFEELRDGFRGLEHHHHHH | soluble |
| MANLCKRVVDLEKYIVKEAPPTVYYIPDFISEAEEEFLLQQVYRAPKPKWTQLSGRRLQNWGGLPNPKGMLAEKLPDWLLEYTEKISALGAFAGKTANHVLVNEYKPGEGIMPHEDGPLYHPTVTTITVGSHTLLDFYRPVCQAEPDAPQTEESRYMLSLLVQRKSLLILQDDMYKCYLHGIRGVCEDVLSEHVVNISSTGAQVGDTLPRSTRVSLTIRHVPKIIRANLFLGKK | not soluble |
| MANSLAIIADPKTGKTYKREIPSERMSSLIGRKIGEEVDGVFFDLVGYKMKITGGSSVDGFAMRPDLQTQGKKQILVKYTSGYRGKNGIRKRITARGSIIGSDITQINLKITQYGPTLEHHHHHH | not soluble |
| MAPILSHSIPIPSSMQANWQQMLNLLAEVLKVSATLIMRLRHHDLDVFCTSVGSDNPYQVGMTERLGTGLYCETVVNTRQILLVSNADLDPLWKDNPDLELGMRAYCGVPLQWPNGELFGSLCVTDRQARQFLSTDQQLIKTFAESIEAQLKTLYQRETLLQMNQ | not soluble |
| MAPKTIFITGANRGIGLGLVRELLKVPGVEALVAGARNIDGAKELQSLAKADARLHLIAVDVSNDGSLENSVKSVSGIVGDRGLNLLINNAGLIESYGTTSAPNRASVLHCIDVNAVSALLASQHFLPLLQKAASHVSGDSLTPDRAAIVNIGSDCASQALNLRGSGPSNSLLAYKMSKVAMLSFSRSMAADFKRLEIPVLITNIHPGWVQTDMGGSNAEISVDESVTKIVASIAKLNGGHQGGLFNRELEEMPL | not soluble |
| MAPPKDPPVLRNLQATADLLDALQNDPSLLNDEEFIKRLSILRQKHEETTNFLAKKLGAPPLPTMMTSSEITQHRSSYKVTKSSSCHFQDEASPSDYQMPRHLDLKPRSSEVRVPVRAAPEPPREQSWSQTEYATLAHNQSHEALYEDPRHQVHATSSHQNPRHQSSRHHNIESTAPSQVSVTSSVQSVAALSGQNPRQQVHATPSHQIPRHQSSRTHQNSRQQVPSATSSTLQNPRHRTSSASRHHSTRNATSATVRQILANASTRHLSSAPHIATSVAMPSGLLLSSSNTKHVASSKSENPQFATSSHVVEESFLEDGMSTTREVPTIRDEVVAGDLKLSKNRSKSMHQLSKYTPQVTVPKPFQLSLRKSTGNTYAKKFMSGLITEKQKLEEDAKKALENTKFRAKPVPKSTYQPTNTFATEQKYVEAMRKKVAAKARRKFEVQNEMVRSKSEGNLASIKPLGYVPPSTYISPIPVKPNARSRSATMRATILIQEATTPKGIKSHRAQSNLTHHLRHGRCTMDASAVSLHRRTSPPDFEKIHAKITDNFRNTNSKPSTVPIPFKFASRSKSATSRHGNCQEQAPKPFKKSTENLPKTSKNRVPSTHATQLREELNRAKIELKKSEKSGKNGNFWAEDNKQRISSFLGARSKTEEDIAMRTKQKLQQQQETTQEYMRQLAEMKQRVLNGPLIMEKQTALAQEHRLKRKFEERMKSAKGRGIERVQSQEKQQSIGRRSSEVSGSGTFVVDKGYEESFESEDKSEKSGSSTPSESGSGSESENESRSSRSSKPKSSKSTSSKSSSSRSTSSSSEA | not soluble |
| MAPRKRSHHGLGFLCCFGGSDIPEINLRDNHPLQFMEFSSPISNAEELNIRFAELVDELDLTDKNREAMFALPPEKKWQIYCSKKKVPSLTPLATSQGSWHGVALAALACSCIHLMFITCQPCSRCWRNNSE | soluble |

— the DeepSol protein solubility set
